Source: publication doi:10.1101/2020.04.07.030676

Target: soluble αβ-tubulin heterodimer (bovine) (UniProt Q6B856)
Assay: ITC

Kd: 630 nM
stoichiometry N: 1
B1: MEKK1 TOG domain, MEKK1(542–888) (domain or fragment)
chain: THYGTQQIPPAYKDLAEPWIQVFGMELVGCLFSRNWNVREMALRRLSHDVSGALLLANGESTGNSGGSSGSSPSGGATSGSSQTSISGDVVEACCSVLSMVCADPVYKVYVAALKTLRAMLVYTPCHSLAERIKLQRLLQPVVDTILVKCADANSRTSQLSISTLLELCKGQAGELAVGREILKAGSIGIGGVDYVLNCILGNQTESNNWQELLGRLCLIDRLLLEFPAEFYPHIVSTDVSQAEPVEIRYKKLLSLLTFALQSIDNSHSMVGKLSRRIYLSSARMVTTVPHVFSKLLEMLSVSSSTHFTRMRRRLMAIADEVEIAEAIQLGVEDTLDGQQDSFLQAS
